Assay [1] has as its target recombinant human MCP-1 (human) (UniProt P13500). Nature of the assay: BIAcore, ABN912 immobilised, recombinant human MCP-1 in solution, n = 30. For orientation: Surface plasmon resonance follows binding to a sensor surface in real time, without labels.
Assay [2] shares this target. Briefly: SPA, inhibition of (125-I)-MCP-1 binding to membranes of CCR2B expressing CHO cells (CHO#84), three independent experiments.
Assay [3] shares this target. Briefly: BIAcore, 5 nM chemokine over ABN912, bound amount after 8 min.
A further assay addresses T1, rh MIP-1α (human, UniProt P10147 27-92, limits assumed).
T1 sequence (looked up): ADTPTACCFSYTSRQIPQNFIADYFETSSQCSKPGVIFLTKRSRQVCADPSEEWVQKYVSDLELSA
Briefly: BIAcore, 5 nM chemokine over ABN912, bound amount after 8 min, n = 3.

A further assay has as its target T2, rh MCP-2 (human, UniProt P80075 24-99).
T2 sequence (looked up): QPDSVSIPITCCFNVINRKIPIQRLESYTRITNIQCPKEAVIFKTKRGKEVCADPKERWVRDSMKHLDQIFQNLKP
The assay is described as above.

For another assay, the target named is T3, rh MIP-1β (human, UniProt P13236 24-92).
T3 sequence (looked up): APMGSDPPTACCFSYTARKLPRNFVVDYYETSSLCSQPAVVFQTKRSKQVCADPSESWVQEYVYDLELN
The assay is described as above.

The next assay deals with rh MCP-3 (human, UniProt P80098 24-99). Described as above.
The target in the next assay is T4, rh LEC (human, UniProt O15467 24-120).
T4 sequence (looked up): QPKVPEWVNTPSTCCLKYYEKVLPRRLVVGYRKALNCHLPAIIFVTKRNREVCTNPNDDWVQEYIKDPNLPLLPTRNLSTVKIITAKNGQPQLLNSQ
The description is as above.

The target in another assay is T5, rh RANTES (human, UniProt P13501 24-91).
T5 sequence (looked up): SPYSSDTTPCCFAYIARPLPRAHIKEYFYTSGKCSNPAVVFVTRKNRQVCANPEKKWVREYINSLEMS
The assay is described as above.

In another assay the target is rh MCP-4 (human, UniProt Q99616 24-98). The assay is described as above.
Assay [4] concerns the target T6, recombinant human eotaxin-1 (human, UniProt P51671 24-97).
T6 construct: also called rh eotaxin
The assay is described as above.

In the next assay the target is T7, MCP-1 mutant K49A (human, UniProt P13500 24-99).
T7 construct: also called K49 to alanine
Nature of the assay: BIAcore, mutant MCP-1 (0.75 to 4 nM) over ABN912 captured on anti-Fcγ.

For the next assay, the target named is Rec dog MCP-1 (dog, UniProt P52203 24-101). Nature of the assay: BIAcore, 5 nM chemokine over ABN912, bound amount after 8 min, n = 3.
The next assay addresses Rec pig MCP-1 (pig, UniProt P42831 24-99). The description is as above.
In another assay the target is Rec rabbit MCP-1 (rabbit, UniProt P28292 24-125, limits assumed). Described as above.
The next assay deals with Rec rat MCP-1 (rat, UniProt P14844 24-148, limits assumed). Described as above.
In the next assay the target is T8, Rec mouse JE/MCP-1 (mouse, UniProt P10148 24-96, limits assumed).
T8 construct: also called mouse MCP-1
Described as above.

Another assay concerns the target Rec guinea pig MCP-1 (guinea pig, UniProt Q08782 24-120, limits assumed). Described as above.

recombinant human MCP-1 (human), sequence (P13500 24-99 limits assumed): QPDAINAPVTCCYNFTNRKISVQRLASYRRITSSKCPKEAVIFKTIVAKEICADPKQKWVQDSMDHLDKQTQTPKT
Rec guinea pig MCP-1, sequence (Q08782 24-120 limits assumed): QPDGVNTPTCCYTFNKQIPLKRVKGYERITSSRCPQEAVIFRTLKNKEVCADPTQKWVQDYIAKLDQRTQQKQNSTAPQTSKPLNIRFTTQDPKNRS
rh MCP-3, sequence (P80098 24-99 limits assumed): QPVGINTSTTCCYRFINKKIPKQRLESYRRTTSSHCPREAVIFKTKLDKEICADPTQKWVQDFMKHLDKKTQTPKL
Rec rabbit MCP-1, sequence (P28292 24-125 limits assumed): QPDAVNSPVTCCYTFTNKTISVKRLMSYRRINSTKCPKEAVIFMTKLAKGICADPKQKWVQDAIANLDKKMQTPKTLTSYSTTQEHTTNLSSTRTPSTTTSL
Rec dog MCP-1, sequence (P52203 24-101 limits assumed): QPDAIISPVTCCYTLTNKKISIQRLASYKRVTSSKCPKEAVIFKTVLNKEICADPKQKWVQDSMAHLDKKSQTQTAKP
Rec pig MCP-1, sequence (P42831 24-99 limits assumed): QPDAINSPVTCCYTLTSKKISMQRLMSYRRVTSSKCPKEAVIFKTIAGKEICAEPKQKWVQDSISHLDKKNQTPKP
T8 sequence (P10148 24-96 limits assumed): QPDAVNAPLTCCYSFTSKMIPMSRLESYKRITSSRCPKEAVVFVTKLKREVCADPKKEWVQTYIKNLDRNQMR
T6 sequence (P51671 24-97 limits assumed): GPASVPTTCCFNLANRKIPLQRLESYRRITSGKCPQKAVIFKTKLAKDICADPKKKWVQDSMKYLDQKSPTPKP
rh MCP-4, sequence (Q99616 24-98 limits assumed): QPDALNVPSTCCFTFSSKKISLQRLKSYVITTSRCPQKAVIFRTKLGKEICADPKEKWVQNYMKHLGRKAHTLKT
Rec rat MCP-1, sequence (P14844 24-148 limits assumed): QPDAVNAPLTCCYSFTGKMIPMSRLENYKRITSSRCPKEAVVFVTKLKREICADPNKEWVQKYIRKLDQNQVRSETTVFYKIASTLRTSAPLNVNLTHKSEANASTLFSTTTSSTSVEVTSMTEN
T7 sequence (P13500 24-99 K72A limits assumed): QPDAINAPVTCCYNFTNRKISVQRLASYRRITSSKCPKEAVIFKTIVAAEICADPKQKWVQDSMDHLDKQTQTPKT

B1: ABN912 antibody (human IgG4/κ anti-human MCP-1 antibody) (antibody, V domains shown)
VH: EVQLVQSGGGLVQPGGSLRLSCAASGFTFSHYWMSWVRQAPGKGLEWLANIEQDGSEKYYVDSVKGRFTISRDNAKNSLYLQMNSLRAEDTAVYFCARDLEGLHGDGYFDLWGRGTLVTVSS
VL: AIQLTQSPSSLSASVGDRVILTCRASQGVSSALAWYQQKPGKAPKLLIYDASSLESGVPSRFSGSGSGPDFTLTISSLQPEDFATYFCQQFNSYPLTFGGGTKVEIK
The term Kd denotes the free concentration of one partner at which half of the binding sites on the other are occupied at equilibrium, for simple one-to-one binding. As a reminder, the koff is a measure of how fast the partners let go of each other. Broadly, the kon is the rate constant with which the complex forms. By IC50 is commonly meant the concentration at which inhibition is half-maximal. Consider B1, for which the Kd in assay [1] stood at 0.043 nM. In assay [1], the dissociation rate constant (koff) was 0.0005 s⁻¹. Also, the kon in assay [1] was 1.3e+07 M⁻¹ s⁻¹. The concentration for half-maximal inhibition (IC50) in assay [2] is 0.461 nM. Moreover, the Binding to ABN912 (percent compared to recombinant human MCP-1) in assay [3] was 100%; in the assay with rh MIP-1α, -2.8%; with rh MCP-2, 6.2%; with rh MIP-1β, -2.9%; with rh MCP-3, 4.3%; with rh LEC, -2.8%. For the same molecule, the figures for the “Binding to ABN912 (percent compared to recombinant human MCP-1)” value (with rh RANTES; in the assay with rh MCP-4; in [4]) were -2.7%, -2.4% and 52.6%, respectively. The Percent binding of ABN912 (compared to recombinant human MCP-1) in assay [3] is 100%; with Rec dog MCP-1, 1.3%; with Rec pig MCP-1 it was 0.5%; with Rec rabbit MCP-1 it was 0.9%; with Rec rat MCP-1, -0.2%; with Rec mouse JE/MCP-1, -0.4%. In addition, the “Percent binding of ABN912 (compared to recombinant human MCP-1)” value in the assay with Rec guinea pig MCP-1 is 2.3%. In addition, the “fold decrease of affinity (against MCP-1)” value with MCP-1 mutant K49A came to 133 fold.
